Test results published in article doi:10.1101/2021.05.16.444192.

Target: neurokinin 1 receptor (human) (UniProt P25103)
Sequence of UniProt P25103 (P25103 whole entry): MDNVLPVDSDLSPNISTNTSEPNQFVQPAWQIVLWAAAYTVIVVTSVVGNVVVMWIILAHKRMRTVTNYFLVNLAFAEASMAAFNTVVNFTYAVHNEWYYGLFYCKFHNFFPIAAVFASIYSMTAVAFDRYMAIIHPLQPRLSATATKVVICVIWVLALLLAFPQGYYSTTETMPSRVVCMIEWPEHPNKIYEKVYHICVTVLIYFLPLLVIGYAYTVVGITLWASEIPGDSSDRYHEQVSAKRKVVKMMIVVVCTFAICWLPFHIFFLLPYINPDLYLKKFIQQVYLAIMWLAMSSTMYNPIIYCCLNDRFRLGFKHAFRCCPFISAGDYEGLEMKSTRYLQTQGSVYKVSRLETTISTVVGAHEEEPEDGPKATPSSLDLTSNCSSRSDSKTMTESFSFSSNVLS

Substance P 6-11 (peptide)
cAMP accumulation at wild-type NK1R, potency compared to SP: 16 fold
